Source: the supplement of paper PMC9170038

Test system: MS2 coat protein
Assay: apparent KD of MS2 coat protein; designed switch direction (-1 OFF switch, 1 ON switch): -1; higher = weaker reporter binding
Method in brief: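 Normalised cluster fluorescence was curve-fitted, and each design's median over clusters is its apparent KD. Before this, SNAP-549-labelled MS2 coat protein was titrated from 0.7 or 1.5 nM, doubling to 3 µM, over RNA switches transcribed on Illumina chips by stalled E. coli RNA polymerase. Titrations had no input, 200 uM small-molecule ligand, or an oligonucleotide input, and steps lasted 0.8–1.5 h (lowest) to 10–20 min (highest).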

[1] = Eterna round: R95, input ligand: FMN 200 uM
[2] = Eterna round: R95, input ligand: microRNA oligo, concentration not stated
[3] = Eterna round: R95, input ligand: none
[4] = input ligand: microRNA oligo, concentration not stated

In the case of “GGUUGUUUUUUCCUUUCUUACAUGAGGAUCACCCAUGUUUCUUGUCGUGCUCGCGUUGCUCGUCUGUCUGUCUGUUG [salish99_TOv1_r3_074] (puzzle: Sensor v3, turn-off variant 1)”, the “apparent KD of MS2 coat protein” value [1] is reported as 49.9 nM, the “apparent KD of MS2 coat protein” value [2] is reported as 36.6 nM and the “apparent KD of MS2 coat protein” value [3] is reported as 55.6 nM.
For “GGUUUCGUAGGAUAUCAUCGAGUAAACAUGAGGAUCACCCAUGUGAGGUCGGCUUGCUCUUGAGAAGGAUGAAUGG [EX5 B.13] (Eterna round: R97, puzzle: Exclusion 5)”, the “apparent KD of MS2 coat protein” value (input ligand: FMN 200 uM) was 40.1 nM and the “apparent KD of MS2 coat protein” value (input ligand: none) was 34 nM.
With “GUAAAGGUAGGAUAUACGAAGAAAAAGGGUAGAAUAAUAACACAUGAGGAUCACCCAUGUAGAAGGACCAAAGG [Mat - Exclusion 2 - Mod of my Tesla design - D8] (puzzle: Exclusion 2)” the “apparent KD of MS2 coat protein” value [1] was 49.8 nM, the “apparent KD of MS2 coat protein” value [2] was 26.4 nM and the “apparent KD of MS2 coat protein” value [3] was 23.8 nM.
For “GUAAAGUGAGGAUAUGGUAAAGUAAUUAUUUAGUAAUUAAUCCAGAAGGCACAUGAGGAUCACCCAUGUAAAUG [Mat - Exclusion 4 - D96] (puzzle: Exclusion 4)”, the “apparent KD of MS2 coat protein” value [1] was 44.6 nM, the “apparent KD of MS2 coat protein” value [2] was 26.1 nM and the “apparent KD of MS2 coat protein” value [3] was 28.7 nM.
In the case of “GUAAAGUGAGGAUAUGGUGAGUAGUGCCUGAGCGCUGCUCACCAGAAGGCACAUGAGGAUCACCCAUGUAUAGC [Mat - Exclusion 4 - Mod of JL - D17] (puzzle: Exclusion 4)”, the “apparent KD of MS2 coat protein” value [2] is reported as 14 nM.
For “GUAGAGUAAGGAUAUCAUGAAUAGGAUAGAAUGGUUAGAAAUGAGAAGGUACAUGAGGAUCACCCAUGUAAUGU [Excluse me!!!! 12 - Jieux - Exclusion 4] (puzzle: Exclusion 4)”, the “apparent KD of MS2 coat protein” value [1] was 20.5 nM, the “apparent KD of MS2 coat protein” value [2] was 21.6 nM and the “apparent KD of MS2 coat protein” value [3] was 17.1 nM.
“GUAGAGUAAGGAUAUGUUGAAUAGGAUAGAAUGGUUAGAAAGCAGAAGGUACAUGAGGAUCACCCAUGUAAUGU [Excluse me!!!! 14 - Jieux - Exclusion 4] (puzzle: Exclusion 4)” was tested, and the “apparent KD of MS2 coat protein” value [2] was 21.4 nM.
In the case of “GUAGAGUAAGGAUAUUGUGAAUAGGAUAGAAUGGUUAGAAACGAGAAGGUACAUGAGGAUCACCCAUGUAAUGU [Excluse me!!!! 22 - Jieux - Exclusion 4] (puzzle: Exclusion 4)”, the “apparent KD of MS2 coat protein” value [1] is reported as 24.1 nM, the “apparent KD of MS2 coat protein” value [2] is reported as 22.1 nM and the “apparent KD of MS2 coat protein” value [3] is reported as 24.4 nM.
With “GUAGAGUCAGGAUAUACAAGAUCGAUAGAUCAAAGGUCCAUACAUGAGGAUCACCCAUGUAGAAGGGACUCUAC [Mat - Exclusion 2 - Eli Mod - D9] (Eterna round: R97, puzzle: Exclusion 2)” the “apparent KD of MS2 coat protein” value (input ligand: FMN 200 uM) was 37.2 nM and the “apparent KD of MS2 coat protein” value (input ligand: none) was 17.9 nM.
With “GUAGAGUCAGGAUAUACGAAUAGAUCGAUAGAUCAAUCCAUACAUGAGGAUCACCCAUGUAGAAGGGACUCUAC [Mat - Exclusion 2 - Eli Mod - D15] (Eterna round: R97, puzzle: Exclusion 2)” the “apparent KD of MS2 coat protein” value (input ligand: FMN 200 uM) was 26.2 nM and the “apparent KD of MS2 coat protein” value (input ligand: none) was 18.8 nM.
With “GUAGCUUCGGCUACUACAAGCUUUUUGCUCGUCUUAUUAACAUGAGGAUCACCCAUGUUAAUGAGACCUCAUGUAUU [Sensor v3 - turn-off variant 2 - 6] (puzzle: Sensor v3, turn-off variant 2)” the “apparent KD of MS2 coat protein” value [1] was 13.4 nM, the “apparent KD of MS2 coat protein” value [2] was 17 nM and the “apparent KD of MS2 coat protein” value [3] was 10.9 nM.
“GUAGUGUGAGGAUAUGGUAAAGAUAAGAUGAUGAAAGAACUCCAGAAGGCACAUGAGGAUCACCCAUGUAGAUU [Mat - Exclusion 4 - Mod of JL - D26] (puzzle: Exclusion 4)” was tested, and the “apparent KD of MS2 coat protein” value [1] was 49.8 nM, the “apparent KD of MS2 coat protein” value [2] was 19.7 nM and the “apparent KD of MS2 coat protein” value [3] was 26 nM.
With “GUAUAUAGUGUGAGGAUAUGCUGGUCCUUGGAUCAGCAGAAGGCACAUGAGGAUCACCCAUGUAGUUUAUUAUG [Mat - Exclusion 4 - JL Mod - D8] (puzzle: Brourd's mod of Exclusion 4)” the “apparent KD of MS2 coat protein” value [2] was 20 nM.
“GUAUGUCUAGGAUAUAUAUUGGAAUGUCCGUGUCCUAGCCAACAUGAGGAUCACCCAUGUAGAAGGAGAUGUGU [Eternabot (L1) Solution 97] (Eterna round: R97, puzzle: Exclusion 2)” was tested, and the “apparent KD of MS2 coat protein” value (input ligand: FMN 200 uM) was 43.5 nM and the “apparent KD of MS2 coat protein” value (input ligand: none) was 52.8 nM.
With “GUCACAUGGACAUAGGAUCACAUGAGGAUCACCCAUGUGACUAACAAGCUUUUUGCUCGUCUUAUGUCCAUGUGAAA [Stov1/15-A2] (Eterna round: R97, puzzle: Sensor, turn-off variant 1)” the “apparent KD of MS2 coat protein” value (input ligand: FMN 200 uM) was 14.1 nM and the “apparent KD of MS2 coat protein” value (input ligand: none) was 13.2 nM.
For “GUCACAUGGACAUAGGAUCACAUGAGGAUCACCCAUGUGACUAACAAGCUUUUUGUUCGUCUUAUGUCUAUGUGAAG [Stov1/16-B3] (Eterna round: R97, puzzle: Sensor, turn-off variant 1)”, the “apparent KD of MS2 coat protein” value (input ligand: FMN 200 uM) was 13.1 nM and the “apparent KD of MS2 coat protein” value (input ligand: none) was 16.9 nM.
For “GUCAGACGAGGAUAUAGAUUUAGAUACAUGAGGAUCACCCAUGUAUACAUGUAUUUAGAUUUAGAAGGCGUCUGAC [E5/14-A4] (Eterna round: R97, puzzle: Exclusion 5)”, the “apparent KD of MS2 coat protein” value (input ligand: FMN 200 uM) was 492 nM and the “apparent KD of MS2 coat protein” value (input ligand: none) was 1360 nM.
With “GUCAGCUCGUGAGGAUAUACAUCACUGCUUCGGCAGUGUAUUAAGAUCACAUGAGGAUCACCCAUGUAGAAGGCACGAGCUGAU [ENG2/2-A2] (Eterna round: R96, puzzle: Exclusion NG 2)” the “apparent KD of MS2 coat protein” value (input ligand: FMN 200 uM) was 1020 nM, the “apparent KD of MS2 coat protein” value [4] was 27.6 nM and the “apparent KD of MS2 coat protein” value (input ligand: none) was 39 nM.
“GUCAGCUCGUGAGGAUAUGAACAUGAGGAUCACCCAUGUAAGAUCAAGCUGCUUCGGCAGCAAGUUCAGAAGGCACGAGCUGAC [ENG2/10-A1] (Eterna round: R96, puzzle: Exclusion NG 2)” was tested, and the “apparent KD of MS2 coat protein” value (input ligand: FMN 200 uM) was 221 nM, the “apparent KD of MS2 coat protein” value [4] was 85.8 nM and the “apparent KD of MS2 coat protein” value (input ligand: none) was 134 nM.
With “GUCAUCAAACAUGGGAUAAACAUGAGGAUCACCCAUGUUAACAAGUUUUUUGCUCGUCUUAUAAUAAGUUUGAUGAC [Antenna 11 - Jieux - Sensor, turn-off variant 1] (Eterna round: R97, puzzle: Sensor, turn-off variant 1)” the “apparent KD of MS2 coat protein” value (input ligand: FMN 200 uM) was 12.4 nM and the “apparent KD of MS2 coat protein” value (input ligand: none) was 13.5 nM.
“GUCAUCACACAUGGGAUCAACAUGAGGAUCACCCAUGUUGUCAAGUUUUUUGCUCGUCUUAUAAUACGUUUGAUGAG [Mod-Jxd] (Eterna round: R97, puzzle: Sensor, turn-off variant 1)” was tested, and the “apparent KD of MS2 coat protein” value (input ligand: FMN 200 uM) was 135 nM and the “apparent KD of MS2 coat protein” value (input ligand: none) was 154 nM.
For “GUCCAGUUAGGAUAUCAAUGCCACAACAUGAGGAUCACCCAUGUUUGGGUCCCUCACCAAUGAGAAGGAACGGGAC [Esteenedso] (puzzle: Exclusion 5)”, the “apparent KD of MS2 coat protein” value [2] was 32.1 nM.
“GUCCUGGCUUUUCACAGGCACAUGAGGAUCACCCAUGUCGUGGGUAGAUCCCUCCCUGGGAAAUCUGCUCGUCUUAU [Cac Sensor turn off v1 sub12] (Eterna round: R97, puzzle: Sensor, turn-off variant 1)” was tested, and the “apparent KD of MS2 coat protein” value (input ligand: FMN 200 uM) was 78.9 nM and the “apparent KD of MS2 coat protein” value (input ligand: none) was 84.6 nM.
“GUCGAGUGAGGAUAUGGUGAGUAGUGCCUGAGCGCUGCUCACCAGAAGGCACAUGAGGAUCACCCAUGUAUGUC [JL-ex4-2.04 denovo] (puzzle: Exclusion 4)” was tested, and the “apparent KD of MS2 coat protein” value [2] was 12.3 nM.
For “GUCGAUGUCAAAGGAUAUCAGCACGUUUAGUGCUGAGAAGGUUGAACAUGAGGAUCACCCAUGUAGAUCAUUAACGACUUAAUU [ENG1/10-A1] (Eterna round: R96, puzzle: Exclusion NG 1)”, the “apparent KD of MS2 coat protein” value (input ligand: FMN 200 uM) was 44.5 nM, the “apparent KD of MS2 coat protein” value [4] was 15.7 nM and the “apparent KD of MS2 coat protein” value (input ligand: none) was 20.7 nM.
With “GUCGCUAGAGGAUAUACAAUGGUAUAUGAUCCUAGUGACAUACAUGAGGAUCACCCAUGUAGAAGGCUAGUAUU [Exclusion 2 - 8] (puzzle: Exclusion 2)” the “apparent KD of MS2 coat protein” value [2] was 23.7 nM.
With “GUCGGGCAAGGAUAUGUAGCACUCUACAUGAGGAUCACCCAUGUGAGCCUGCAUGGUGCGACAGAAGGUGCAAAAG [Enencear] (Eterna round: R97, puzzle: Exclusion 5)” the “apparent KD of MS2 coat protein” value (input ligand: FMN 200 uM) was 330 nM and the “apparent KD of MS2 coat protein” value (input ligand: none) was 361 nM.
For “GUCGUGUAAGGAUAUGCAUCGAGGUAGCGAAUGUUGCAGGUGUAGAAGGUACAUGAGGAUCACCCAUGUAAUGU [Exclusion 4 - An extended Mod of Jieux] (puzzle: Exclusion 4)”, the “apparent KD of MS2 coat protein” value [2] was 20.2 nM.
For “GUCUAGCGAGGAUAUUGCAGACGAAACAUGAGGAUCACCCAUGUGGCCUUGUGCCGUGUGCAAGAAGGCGCGAGGC [Gelelaor] (Eterna round: R97, puzzle: Exclusion 5)”, the “apparent KD of MS2 coat protein” value (input ligand: FMN 200 uM) was 297 nM and the “apparent KD of MS2 coat protein” value (input ligand: none) was 268 nM.
For “GUCUUACAUGAGGAUCACCCAUGUGAGGAUAUGGAUUCGCUGGCCGUAGCCAGUGGAUCCAGAAGGCGCAUGAU [JL-ex1-4.04] (Eterna round: R97, puzzle: Exclusion 1)”, the “apparent KD of MS2 coat protein” value (input ligand: FMN 200 uM) was 50.9 nM and the “apparent KD of MS2 coat protein” value (input ligand: none) was 39.2 nM.
With “GUCUUACAUGAGGAUCACCCAUGUGAGGAUAUGGAUUCGCUGGCCGUAGCCAGUGGAUCCAGAAGGCGCGUGAU [JL-ex1-4.20] (Eterna round: R97, puzzle: Exclusion 1)” the “apparent KD of MS2 coat protein” value (input ligand: FMN 200 uM) was 67 nM and the “apparent KD of MS2 coat protein” value (input ligand: none) was 62.5 nM.
In the case of “GUGAAGUGAGGAUAUACGAGAGAGGCUGAACCGGACGAGAAGUAGAAGGCACAUGAGGAUCACCCAUGUAAGGA [JR_Exclu4_Sub022] (puzzle: Exclusion 4)”, the “apparent KD of MS2 coat protein” value [2] is reported as 34.4 nM.
For “GUGAGAUAGUUAGUGGACGACAUGAGGAUCACCCAUGUGAGGGAAAUGUUAAGGAGAAAGCUUUUUGCUCGUCUUUA [JR_SV3TOV1_Sub035] (puzzle: Sensor v3, turn-off variant 1)”, the “apparent KD of MS2 coat protein” value [1] was 98.9 nM, the “apparent KD of MS2 coat protein” value [2] was 70.4 nM and the “apparent KD of MS2 coat protein” value [3] was 180 nM.
For “GUGAGCAGACGGAGAUCCAACAUGAGGAUCACCCAUGUCUCACUAGCUUUUUGCUCGUCUUAUCCUCCUCUGUUCAC [Elimod 23 - Jieux - Sensor, turn-off variant 1] (Eterna round: R97, puzzle: Sensor, turn-off variant 1)”, the “apparent KD of MS2 coat protein” value (input ligand: FMN 200 uM) was 16 nM and the “apparent KD of MS2 coat protein” value (input ligand: none) was 16.2 nM.
